Assay results taken from paper PMC6239178, “The binding of Class II sRNA MgrR to two different sites on matchmaker protein Hfq enables efficient competition for Hfq and annealing to regulated mRNAs”.
Residue numbers refer to the chain shown, from its start.

How the values were obtained:
Hfq wt [1] = biological target: T1, Hfq wt (Escherichia coli, UniProt P0A6X3 1-102); assay: filter binding; 32P-U18 complex displaced by MgrR; HBB buffer (composition not in material); competition and dissociation at RT; Kd gelshift 0.1 nM 32P-MgrR, 2 h RT, 5% native gel in TBM (89 mM Tris, 89 mM borat); conditions: protein: recombinant; pET15b); chain copies: 6; label: 32P or unlabeled; single-stranded
T1 sequence (P0A6X3 whole entry): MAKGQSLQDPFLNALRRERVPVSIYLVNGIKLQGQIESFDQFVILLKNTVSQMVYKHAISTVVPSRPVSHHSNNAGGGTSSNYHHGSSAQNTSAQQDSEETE

Hfq wt [2] = biological target: T1, Hfq wt; assay: EMSA; ternary complex with MgrR, unaffected; HBB buffer (composition not in material); competition and dissociation at RT; Kd gelshift 0.1 nM 32P-MgrR, 2 h RT, 5% native gel in TBM (89 mM Tris, 89 mM borat); conditions: protein: recombinant; pET15b); chain copies: 6
Hfq wt [3] = biological target: T1, Hfq wt; assay: EMSA; ternary complex with MgrR, annealing not markedly affected; HBB buffer (composition not in material); competition and dissociation at RT; Kd gelshift 0.1 nM 32P-MgrR, 2 h RT, 5% native gel in TBM (89 mM Tris, 89 mM borat); conditions: protein: recombinant; pET15b); chain copies: 6
Hfq wt [4] = biological target: T1, Hfq wt; assay: filter binding; 32P-A27 complex displaced by MgrR; HBB buffer (composition not in material); competition and dissociation at RT; Kd gelshift 0.1 nM 32P-MgrR, 2 h RT, 5% native gel in TBM (89 mM Tris, 89 mM borat); conditions: protein: recombinant; pET15b); chain copies: 6; label: 32P or unlabeled; single-stranded

UUUUUUUUUUUUUUUUUU (ssRNA) [U18]: binds (Hfq wt [1]).

B1: ygdQ145_AU3 (structured_RNA)
RNA: GCUUCAUUUUUUUGGCAGGGCUUUUUAGAUGUUAUUUGCAUGGAUAACCGAUCCUAACGCCUGGCUUGCGCUCGGUACGCUGACGCUGCUGGAGAUCGUUCUUGGGAUCGACAAUGUGCUGGUCCUCUCUCUGGUGGUGGCAAAG
B1: binds (Hfq wt [2]).

B2: eptB133_AU1_v1 (structured_RNA)
RNA: GCGCGUGUAGACCGCACUUAUCUGACUACCUCCGCACUUUUUCCCUGCCGGGCCUGAAAAGCCACUAAGCAGGGUGUUAUCACCUGUUUGUCCAGGGUUUGUUUGCAUGAGAUACAUCAAAUCGAUUACACAG
B2: binds (Hfq wt [3]).

B3: eptB133_AU1_v2 (structured_RNA)
RNA: B2 RNA with A11U, C12U, C13U, G14U, C15U, A16U, A20U
B3: binds (Hfq wt [3]).

AAAAAAAAAAAAAAAAAAAAAAAAAAA (ssRNA) [A27]: binds (Hfq wt [4]).
